The target of the assay is TASK3 (UniProt Q9NPC2). Briefly: fluorescence polarisation.
UniProt Q9NPC2, sequence (Q9NPC2 whole entry): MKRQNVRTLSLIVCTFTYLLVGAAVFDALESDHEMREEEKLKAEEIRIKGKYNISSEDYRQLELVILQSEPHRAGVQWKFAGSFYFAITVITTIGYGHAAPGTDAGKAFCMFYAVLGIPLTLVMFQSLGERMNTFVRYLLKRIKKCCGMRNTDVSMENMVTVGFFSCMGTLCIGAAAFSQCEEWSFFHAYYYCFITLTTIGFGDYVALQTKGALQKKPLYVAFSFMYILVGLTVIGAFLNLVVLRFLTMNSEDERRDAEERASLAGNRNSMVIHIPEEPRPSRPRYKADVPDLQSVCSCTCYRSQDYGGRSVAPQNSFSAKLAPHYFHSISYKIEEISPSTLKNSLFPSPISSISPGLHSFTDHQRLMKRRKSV

On to “14-3-3 protein (from UniProt P31947 1-248) (natural protein)”, for which the dissociation constant Kd is 4.05 µM and the cooperativity factor α (stabilisation of the pair by fusicoccin-A) worked out at 1340.

For orientation: Kd means the free concentration of one partner at which half of the binding sites on the other are occupied at equilibrium, for simple one-to-one binding.
